Reference: US20200024322A1 (Eli Lilly, published 2020)
Changes are numbered by the printed parent chain. Numbered stars: 1 amine (or outer) side, 2 acyl side, 3 side chain; on linkers, the order of the positions; unused ones are H or OH. Square brackets hold non-standard residues; d marks the D form. Side chains are listed from the residue outwards. Ends that are not written are not given here. * marks the point of attachment. C20 diacid = O=C(O)CCCCCCCCCCCCCCCCCCC(=O)*; αMePhe(2-F) = C[C@](N)(Cc1ccccc1F)C(=O)O; γGlu = O=C(O)[C@H](CCC(=O)[*:2])N[*:1]; αMeL = CC(C)C[C@](C)(N)C(=O)O; AEEA = NCCOCCOCC(=O)O; Aib = CC(C)(N)C(=O)O

T1: human GIP receptor (human, UniProt P48546 22-466)
T1 construct: whole, on cells; Used as crude membranes of stably transfected CHO cells; also called hGIPR
T1 sequence (looked up): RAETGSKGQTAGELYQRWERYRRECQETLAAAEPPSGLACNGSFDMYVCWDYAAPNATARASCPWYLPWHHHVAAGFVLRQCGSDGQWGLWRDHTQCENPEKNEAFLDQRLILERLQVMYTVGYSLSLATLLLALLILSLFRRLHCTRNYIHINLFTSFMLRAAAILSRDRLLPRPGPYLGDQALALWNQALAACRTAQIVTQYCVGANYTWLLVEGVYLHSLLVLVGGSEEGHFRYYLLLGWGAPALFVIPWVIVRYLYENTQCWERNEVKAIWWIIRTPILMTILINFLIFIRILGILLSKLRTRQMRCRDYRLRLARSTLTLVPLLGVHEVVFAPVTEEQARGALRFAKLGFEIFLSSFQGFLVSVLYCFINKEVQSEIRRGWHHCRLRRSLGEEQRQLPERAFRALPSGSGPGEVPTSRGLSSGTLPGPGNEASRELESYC

B1: Example 153 (peptide)
peptide: YXEGTXTSDYSIXLDEKAQXEFIHYLIEGGPSSGAPPPS
modifications: Aib2; αMeF(2F)6; αMeL13; K17((2-[2-(2-Amino-ethoxy)-ethoxy]-acetyl)2-(γ-Glu)-CO-(CH2)18-CO2H); Aib20; C-terminal NH2
B2: Example 125 (peptide)
peptide: B1 peptide with E16K, E21A, H24E
modifications: Aib2; αMeF6; αMeL13; K17((2-[2-(2-Amino-ethoxy)-ethoxy]-acetyl)2-(γ-Glu)2-CO-(CH2)18-CO2H); Aib20; C-terminal NH2
B3: Example 145 (peptide)
peptide: B1 peptide with Y10A, E16K, E21A, H24E
modifications: Aib2; αMeF6; αMeL13; K17((2-[2-(2-Amino-ethoxy)-ethoxy]-acetyl)2-(γ-Glu)-CO-(CH2)18-CO2H); Aib20; C-terminal NH2
B4: Example 119 (peptide)
peptide: B1 peptide with Y1F, E21A, H24E
modifications: Aib2; αMeF6; αMeL13; K17((2-[2-(2-Amino-ethoxy)-ethoxy]-acetyl)2-(γ-Glu)-CO-(CH2)18-CO2H); Aib20; C-terminal NH2
B5: Example 138 (peptide)
peptide: B1 peptide with E16K, E21S, H24E
modifications: Aib2; αMeF6; αMeL13; K17((2-[2-(2-Amino-ethoxy)-ethoxy]-acetyl)2-(γ-Glu)-CO-(CH2)18-CO2H); Aib20; C-terminal NH2
B6: Example 118 (peptide)
peptide: B1 peptide with H24E
modifications: Aib2; αMeF(2F)6; αMeL13; K17((2-[2-(2-Amino-ethoxy)-ethoxy]-acetyl)2-(γ-Glu)-CO-(CH2)18-CO2H); Aib20; C-terminal NH2
B7: Example 149 (peptide)
peptide: B1 peptide with H24V
modifications: Aib2; αMeF(2F)6; αMeL13; K17((2-[2-(2-Amino-ethoxy)-ethoxy]-acetyl)2-(γ-Glu)-CO-(CH2)18-CO2H); Aib20; C-terminal NH2
B8: Example 154 (peptide)
peptide: Y[Aib]EGT[αMePhe(2-F)]TSDHSI[αMeL]LDEK([AEEA-AEEA-γGlu-C20 diacid])AQ[Aib]EFIEYLIEGGPSSGAPPPS-NH2
modifications: N-terminus assumed
SMILES: CC[C@H](C)[C@H](NC(=O)[C@H](CC(C)C)NC(=O)[C@H](Cc1ccc(O)cc1)NC(=O)[C@H](CCC(=O)O)NC(=O)[C@@H](NC(=O)[C@H](Cc1ccccc1)NC(=O)[C@H](CCC(=O)O)NC(=O)C(C)(C)NC(=O)[C@H](CCC(N)=O)NC(=O)[C@H](C)NC(=O)[C@H](CCCCNC(=O)COCCOCCNC(=O)COCCOCCNC(=O)CC[C@H](NC(=O)CCCCCCCCCCCCCCCCCCC(=O)O)C(=O)O)NC(=O)[C@H](CCC(=O)O)NC(=O)[C@H](CC(=O)O)NC(=O)[C@H](CC(C)C)NC(=O)[C@](C)(CC(C)C)NC(=O)[C@@H](NC(=O)[C@H](CO)NC(=O)[C@H](Cc1c[nH]cn1)NC(=O)[C@H](CC(=O)O)NC(=O)[C@H](CO)NC(=O)[C@@H](NC(=O)[C@](C)(Cc1ccccc1F)NC(=O)[C@@H](NC(=O)CNC(=O)[C@H](CCC(=O)O)NC(=O)C(C)(C)NC(=O)[C@@H](N)Cc1ccc(O)cc1)[C@@H](C)O)[C@@H](C)O)[C@@H](C)CC)[C@@H](C)CC)C(=O)N[C@@H](CCC(=O)O)C(=O)NCC(=O)NCC(=O)N1CCC[C@H]1C(=O)N[C@@H](CO)C(=O)N[C@@H](CO)C(=O)NCC(=O)N[C@@H](C)C(=O)N1CCC[C@H]1C(=O)N1CCC[C@H]1C(=O)N1CCC[C@H]1C(=O)N[C@@H](CO)C(N)=O
B9: Example 150 (peptide)
peptide: B1 peptide with H24S
modifications: Aib2; αMeF(2F)6; αMeL13; K17((2-[2-(2-Amino-ethoxy)-ethoxy]-acetyl)2-(γ-Glu)-CO-(CH2)18-CO2H); Aib20; C-terminal NH2
B10: Example 163 (peptide)
peptide: B1 peptide with Y1H, H24E
modifications: Aib2; αMeF(2F)6; αMeL13; K17((2-[2-(2-Amino-ethoxy)-ethoxy]-acetyl)2-(γ-Glu)-CO-(CH2)18-CO2H); Aib20; C-terminal NH2
B11: Example 116 (peptide)
peptide: B1 peptide with H24E
modifications: Aib2; αMeF6; αMeL13; K17((2-[2-(2-Amino-ethoxy)-ethoxy]-acetyl)2-(γ-Glu)-CO-(CH2)18-CO2H); Aib20; C-terminal NH2
B12: Example 142 (peptide)
peptide: B1 peptide with E16K, E21H, H24E
modifications: Aib2; αMeF6; αMeL13; K17((2-[2-(2-Amino-ethoxy)-ethoxy]-acetyl)2-(γ-Glu)-CO-(CH2)18-CO2H); Aib20; C-terminal NH2
B13: Example 140 (peptide)
peptide: B1 peptide with E16K, E21D, H24E
modifications: Aib2; αMeF6; αMeL13; K17((2-[2-(2-Amino-ethoxy)-ethoxy]-acetyl)2-(γ-Glu)-CO-(CH2)18-CO2H); Aib20; C-terminal NH2
B14: Example 4 (peptide)
peptide: B1 peptide with Y10X, E16X, H24X, Y25X
modifications: not fully specified; Aib2; αMeF(2F)6; 4Pal10; αMeL13; Orn16; K17((2-[2-(2-Amino-ethoxy)-ethoxy]-acetyl)2-(γ-Glu)-CO-(CH2)16-CO2H); Aib20; D-Glu24; αMeY25; C-terminal NH2
B15: Example 5 (peptide)
peptide: B1 peptide with Y10V, E16X, H24X, Y25X
modifications: not fully specified; Aib2; αMeF(2F)6; αMeL13; Orn16; K17((2-[2-(2-Amino-ethoxy)-ethoxy]-acetyl)2-(γ-Glu)-CO-(CH2)16-CO2H); Aib20; D-Glu24; αMeY25; C-terminal NH2

Target: T1, human GIP receptor
Assay: SPA, [125I]-GIP displacement, hGIPR membranes

Binder | Ki
B1 | 0.0578 nM
B2 | 0.0624 nM
B3 | 0.0652 nM
B4 | 0.0925 nM
B5 | 0.0295 nM
B6 | 0.0859 nM
B7 | 0.0708 nM
B8 | 0.061 nM
B9 | 0.0649 nM
B10 | 0.116 nM
B11 | 0.0597 nM
B12 | 0.0275 nM
B13 | 0.0474 nM
B14 | 0.0528 nM
B15 | 0.0611 nM

Target: T2, human glucagon receptor (human, UniProt P47871 26-477)
T2 construct: whole, on cells; Used as crude membranes of stably transfected HEK293 cells; also called hGcgR; hGLcgR
T2 sequence (P47871 26-477): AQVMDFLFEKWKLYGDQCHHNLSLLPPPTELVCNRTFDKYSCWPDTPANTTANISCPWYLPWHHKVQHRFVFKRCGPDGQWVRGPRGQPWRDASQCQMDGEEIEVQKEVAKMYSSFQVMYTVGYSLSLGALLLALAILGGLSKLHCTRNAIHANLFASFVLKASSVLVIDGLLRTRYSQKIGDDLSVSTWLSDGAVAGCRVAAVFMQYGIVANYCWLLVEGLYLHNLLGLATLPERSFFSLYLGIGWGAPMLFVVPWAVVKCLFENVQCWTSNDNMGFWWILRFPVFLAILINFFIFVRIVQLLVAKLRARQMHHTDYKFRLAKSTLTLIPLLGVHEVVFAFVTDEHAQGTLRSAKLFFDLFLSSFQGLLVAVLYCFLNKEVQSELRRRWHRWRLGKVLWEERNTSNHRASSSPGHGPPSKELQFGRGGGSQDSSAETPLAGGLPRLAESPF
Assay: SPA, [125I]-Gcg displacement, hGcgR membranes

Binder | Ki
B1 | 43.8 nM
B2 | 54.4 nM
B3 | 158 nM
B4 | 30.6 nM
B5 | 61.2 nM
B6 | 53 nM
B7 | 127 nM
B8 | 762 nM
B9 | 63.2 nM
B10 | 117 nM
B11 | 137 nM
B12 | 53.1 nM
B13 | 175 nM
B14 | 686 nM
B15 | 519 nM

Target: T3, human GLP-1 receptor (human, UniProt P43220 24-463)
T3 construct: whole, on cells; Used as crude membranes of stably transfected HEK293 cells; also called hGLP1R; hGLP-1R
Assay: SPA, [125I]-GLP-1 displacement, hGLP-1R membranes

Binder | Ki
B1 | 22.2 nM
B2 | 3.19 nM
B3 | 2.22 nM
B4 | 9.87 nM
B5 | 0.926 nM
B6 | 6.1 nM
B7 | 26.1 nM
B8 | 5.64 nM
B9 | 30.5 nM
B10 | 10.8 nM
B11 | 6.8 nM
B12 | 1.06 nM
B13 | 1.46 nM
B14 | 1.63 nM
B15 | 0.902 nM
